Measurements reported in publication PMC4640833, “Identification of a Novel Di-D-Fructofuranose 1,2’:2,3’ Dianhydride (DFA III) Hydrolysis Enzyme from Arthrobacter aurescens SK8.001” (PLoS ONE, 2015).

B1: AaDFA IIIase (Paenarthrobacter aurescens) (protein)
chain: MSNSNYYNVTAWPIGDPFTGVGEVINSIIADIKDRQTATDENDGGKPGAVIYLPPGDYRLRTQVVIDVSFLRIEGSGHGFTSSSIRFNAPEAEWPDLHELWPGGSRVMVDLPIIDDERPSDLLPDQESKGAAFYVERSGSPRISSVEFSNFCIDGLHFTPDGSGLPAENSYVNGKTGIYVASANDSFRVNGMGFVYLENALTICKADALSVHDNFIAECGSCIELRGWGQASKITDNLIGAGFKGHSIYAQNHGGLLITANNIFPRGASSIHFEGVTRSSVSNNRLHSFYPGMVVLAEGSSENLVSTNHFLRDHEPWTPFLGVDNGRDDLYGILRISGSNNSVIGNHFSEVVDAQSIWPSGATPVIIRLAEGTGNFVSNNHVVAMDVRSASSDSCFAAQVDALLTTGASDGLAVTAVLVDSTSARNTILDSGNDAQVIADRGANAVRATPTVGFAAAESTQSSQGAGIPR
notes: full length 470 residues (49,879 Da), no signal peptide, C-terminal 6xHis tag kept, pET-22b(+) in E. coli BL21(DE3), homotrimer 145 kDa

How the values were obtained:
[1] = biological target: DFA III hydrolysis enzyme (DFA IIIase) from Arthrobacter aurescens SK8.001 (Arthrobacter aurescens SK8.001); experiment: SEC; gel filtration by HPLC, TSK G2000SWxl column, 0.1 M phosphate buffer pH 6.7 with 0.05% NaN3 and 0.1 M Na2SO4, 1 mL/min, UV 280 nm; native mass about 145 kDa against 49 kDa subunit by SDS-PAGE; mass markers for calibration
[2] = substrate: OC[C@H]1O[C@@]2(CO[C@]3(CO)O[C@H](CO)[C@@H](O)[C@@H]3O2)[C@@H](O)[C@@H]1O; experiment: HPLC (refractive index) of inulobiose produced, nonlinear Michaelis-Menten fit; format: biochemical, Paenarthrobacter aurescens; details: 50 mM citrate buffer pH 5.5, 55°C, 10 min, DFA III 2.0-50 mM

Row | Molecule | stoichiometry N [1] | Km [2] [mM]
1 | DFA III hydrolysis enzyme (DFA IIIase) from Arthrobacter aurescens SK8.001 | 3 | 
2 | B1 |  | 30.7 ± 4.3
